From paper PMC2908990 (Molecular cell, 2009)

B1: CH1 domain of the murine IgG1 heavy chain, reduced (domain or fragment)
chain: not shown
modifications: internal disulfide bridge not formed (reduced)
B2: CH1 domain of the murine IgG1 heavy chain, oxidized (internal disulfide bridge formed) (domain or fragment)
chain: not shown
modifications: internal disulfide bridge formed (oxidized; Cys25-Cys80)

Molecular target: BiP, murine sequence (hamster BiP mutated to the murine sequence) (murine, UniProt P20029 20-655)
Test: SEC

Sequence of BiP, murine sequence (hamster BiP mutated to the murine sequence) (P20029 20-655, change not shown): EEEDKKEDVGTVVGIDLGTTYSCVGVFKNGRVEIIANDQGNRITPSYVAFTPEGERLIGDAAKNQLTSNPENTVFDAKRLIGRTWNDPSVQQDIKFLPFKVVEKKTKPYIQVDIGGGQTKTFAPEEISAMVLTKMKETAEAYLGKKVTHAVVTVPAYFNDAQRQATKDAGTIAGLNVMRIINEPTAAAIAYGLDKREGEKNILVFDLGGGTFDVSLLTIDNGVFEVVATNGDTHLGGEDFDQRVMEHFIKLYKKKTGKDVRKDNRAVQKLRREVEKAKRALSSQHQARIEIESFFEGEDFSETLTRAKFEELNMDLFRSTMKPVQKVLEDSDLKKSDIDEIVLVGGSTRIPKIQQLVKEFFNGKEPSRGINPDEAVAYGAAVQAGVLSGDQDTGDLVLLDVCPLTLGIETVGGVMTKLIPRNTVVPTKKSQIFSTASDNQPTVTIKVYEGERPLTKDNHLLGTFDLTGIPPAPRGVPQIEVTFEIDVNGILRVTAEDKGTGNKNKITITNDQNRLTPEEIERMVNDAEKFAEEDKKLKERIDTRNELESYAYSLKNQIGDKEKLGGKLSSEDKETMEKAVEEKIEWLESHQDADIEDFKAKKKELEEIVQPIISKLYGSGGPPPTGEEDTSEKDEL

Binder	Kd [µM]	koff [s⁻¹]	kon [M⁻¹ s⁻¹]
B1	4.2 ± 0.4	7.83e-05	6.83
B2	12.6 ± 0.7	8.33e-05	4.33
